Source: paper PMC9307627, “Targeting loop3 of sclerostin preserves its cardiovascular protective action and promotes bone formation”

T1: sclerostin loop2 (human, UniProt Q9BQB4 110-133)
T1 chain: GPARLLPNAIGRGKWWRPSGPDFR

T2: sclerostin loop3m (human, UniProt Q9BQB4 135-164, R138A;Y139A;R140A;Q142A;R143A;V144A;G151A;E152A;R157A;K158A;V159A)
T2 chain: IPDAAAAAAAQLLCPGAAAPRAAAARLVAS

T3: sclerostin loop1 (human, UniProt Q9BQB4 81-104)
T3 chain: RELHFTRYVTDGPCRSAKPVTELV

T4: sclerostin loop3 (WT) (human, UniProt Q9BQB4 135-164)
T4 chain: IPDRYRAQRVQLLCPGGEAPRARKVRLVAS


Assays:
Test in all cases: ELONA; ELONA: 160 ng protein coated in PBS; biotinylated aptamer 45 min at RT; wash in PBS pH 7.4, 1 mM MgCl2, 5 mM imidazole, 0.05% Tween 20; streptavidin-HRP/TMB, hyperbolic fit
[1] = target: full-length human sclerostin (FL hSOST) (human, UniProt Q9BQB4 25-213); conditions: protein: recombinant; tags: His6; label: biotin
sclerostin loop2 = target: T1, sclerostin loop2; conditions: label: biotin
sclerostin loop3m = target: T2, sclerostin loop3m; conditions: label: biotin
sclerostin loop1 = target: T3, sclerostin loop1; conditions: label: biotin
sclerostin loop3 (WT) = target: T4, sclerostin loop3 (WT); conditions: label: biotin

Chain of full-length human sclerostin (FL hSOST) (Q9BQB4 25-213): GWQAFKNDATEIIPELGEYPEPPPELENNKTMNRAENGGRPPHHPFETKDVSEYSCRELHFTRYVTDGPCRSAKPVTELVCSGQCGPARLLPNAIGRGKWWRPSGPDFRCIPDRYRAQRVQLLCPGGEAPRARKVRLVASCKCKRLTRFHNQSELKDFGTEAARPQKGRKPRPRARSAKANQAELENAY

Row | Binder | Kd [1] [nM] | further results
1 | TGGGGGTAGGGGGTCCTTGGCTACGGTGATTCGGATGTGA (ssDNA) [aptamer candidate 51] | 62.2 | 
2 | TGGAAGGGTGGGGGCGGGGGGTCCTCGCCTCGAACGTACG (ssDNA) [aptamer candidate 6] | 4.2 | 
3 | GGGTGGATTAAGGGGGCCCCGTCTGTAGGCGATTGGCGAA (ssDNA) [aptamer candidate 46] | 45.6 | 
4 | CGGGGTGTGGGTAAATCGTTAGAAAGATTAAACAGCTGCC (ssDNA) [aptscl56m] |  | binding result [1]: no binding
5 | TGGGGGTAGGGGGACCCTGGCTAGTTAGTCACCGTTTCGA (ssDNA) [aptamer candidate 9] | 3.4 | 
6 | GAGGGGGCCAACTATGCTTAGTGGGGGGGTTGACCGTATC (ssDNA) [aptamer candidate 15] | 4 | 
7 | CGGGGTGTGGGTTCGTCGTTAGCTTGATTTGGCAGCTGCC (ssDNA) [aptscl56] | 43.1 | binding result (sclerostin loop2): no binding; binding result (sclerostin loop3m): binds; binding result (sclerostin loop1): no binding; binding result (sclerostin loop3 (WT)): binds
8 | CCCAGACGAGACACCTCATGCTTTTCCCCGGGGGAGGGGTAT (ssDNA) [aptamer candidate 132] | 42.2 | 
